Test [1] addresses T1, hPAR4-biotinylated peptide (Homo sapiens, UniProt Q96RI0).
T1 construct: host or cells: synthetic peptide
The test is described as follows: SA chip biotin peptide SPR (Biacore, streptavidin capture). Type of test: binding. As for the experimental part: Biacore analysis was performed on a Biacore T200 using two different methods either an anti-mouse Fc capture approach or using a similar method as described above using the ProteoOn system.
A series S sensor chip SA was conditioned using the manufacturers recommended protocol and immobilised with 1 ug/ml hPAR4-biotinylated peptide on FC2 and hPAR1-biotinylated peptide as a control onto FC1. […] Blank injections of buffer alone were also performed. All injections were performed in duplicate and in a random order. After each capture/injection/dissociation cycle the chip was regenerated with a 30 second injection of 0.1M Glycine pH2.0.
For the mAb capture method low levels of ligand mAb and analyte hPAR4 were used in an attempt to produce a 1:1 binding interaction, this method has been used successfully to measure kinetics and affinity KD's (Kamat V and Rafique A (2017) Analytical Biochemistry 530:75-86), despite using a whole IgG.
The kinetics of the binding interaction between the mAbs and hPAR4 was measured using Surface Plasmon Resonance (SPR; Biacore) by two different methods: 1. Anti-mouse Fc mAb capture method and 2. Streptavidin (SA) chip to capture biotinylated peptide. The ka(on) rate and kd(off) rates and KD were measured and fitted to a Langmuir model using the Biacore evaluation software.

Test [2] has as its system hPAR4 peptides 1-9, 8-15 and 11-20. The test is described as follows: Epitope mapping ELISA with overlapping hPAR4 peptides. The test is classed as binding, human. The settings on record: peptides coated at 10 ug/ml. As for the experimental part: Briefly the peptides were coated onto a Nunc maxisorp ELISA plate at 10 ug/ml overnight in coating buffer (0.1M sodium carbonate pH8.0). Purified mAbs diluted in PBS were used in place of supernatant.

For the next test, the target named is T2, PAR4 (Homo sapiens, UniProt Q96RI0).
T2 construct: host or cells: HEK293 cells transfected with FLAG-PAR4 and/or isolated human platelets
T2 sequence (Q96RI0 18-385): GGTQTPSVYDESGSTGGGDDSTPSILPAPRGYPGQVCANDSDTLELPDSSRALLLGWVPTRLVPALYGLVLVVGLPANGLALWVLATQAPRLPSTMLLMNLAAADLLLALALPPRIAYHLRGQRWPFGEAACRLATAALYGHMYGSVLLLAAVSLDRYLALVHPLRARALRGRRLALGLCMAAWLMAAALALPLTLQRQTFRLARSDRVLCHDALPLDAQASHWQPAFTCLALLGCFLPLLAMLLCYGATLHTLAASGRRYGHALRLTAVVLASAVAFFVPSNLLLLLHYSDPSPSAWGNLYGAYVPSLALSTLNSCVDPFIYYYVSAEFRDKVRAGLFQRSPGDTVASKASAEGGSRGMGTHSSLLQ
In words: Functional bioassays for PAR4 inhibitory function. Type of test: cell-based.

Entries after “also recorded” stand apart in the source; their conditions may differ.

T1 sequence (Q96RI0 with tags, fused parts or gaps limits assumed): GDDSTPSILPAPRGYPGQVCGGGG

B1: 5A.RC3: anti-PAR4 monoclonal antibody, IgG2a/K, VH SEQ ID NO:11 and VL SEQ ID NO:12 (antibody, V domains shown)
VH: QVQLVESGGGVVQPGRSLRLSCAASGFTLSNYGMHWVRQAPGKGLEWVSVIWYDGSNKHYADSVKGRFTISRDNSKNTLYLQMNSLRAEDTAVYYCARESIVEVLPPFDYWGQGTLVTVSS
VL: KIVLTQSPGTLSLSPGERVTLSCRASQRVRNNYLAWFQQKPGQAPRLFIYGASSRATGIPDRFSGSGSGTDFIFTISRLEPEDFAVYYCQQYGNSYTFGQGTKLEIK
modifications: VH of 5A.RC3; VL of 5A.RC3
In test [1], B1 displayed a ka of 1.32e+06 M⁻¹ s⁻¹ and a kd of 0.000417 s⁻¹. Further, the “hPAR4 peptide the mAb reacted with” value in test [2] is listed as “amino acid residues 8-15”. Further, the “PAR4 inhibitory (antagonist) function” value in the test with PAR4 is reported as “demonstrated PAR4 inhibitory function; also recorded: antagonist”.
